# Measured values reported in the Immune Epitope Database (IEDB).
# Tests used:
# [1] = target: HLA-A*01:01; test: IEDB peptide-MHC binding, purified MHC/direct/fluorescence; filed as Kd, often an IC50 or EC50 that approximates it; ≥ and ≤ were set here for values at or beyond the usual limits of such assays
# [2] = target: HLA-A*11:01; test: as above
# [3] = target: HLA-A*26:03; test: as above
# [4] = target: HLA-A*31:01; test: as above
# [5] = target: HLA-B*07:02; test: as above
# [6] = target: HLA-B*15:01; test: as above
# [7] = target: HLA-B*15:02; test: as above
# [8] = target: HLA-B*27:05; test: as above
# [9] = target: HLA-B*35:01; test: as above; details: source organism: Hepatovirus A
# [10] = target: HLA-B*46:01; test: as above
# [11] = target: HLA-B*48:01; test: as above
# [12] = target: HLA-B*57:01; test: as above
# [13] = target: HLA-B*58:01; test: as above
# [14] = target: HLA-C*06:02; test: as above; details: source organism: Hepatovirus A
# [15] = target: HLA-C*12:03; test: as above; details: source organism: Hepatovirus A
# [16] = target: HLA-A*02:01; test: IEDB peptide-MHC binding, purified MHC/competitive/fluorescence; filed as Kd, often an IC50 or EC50 that approximates it; ≥ and ≤ were set here for values at or beyond the usual limits of such assays; details: source organism: Hepatovirus A
# [17] = target: HLA-A*02:03; test: as above; details: source organism: Hepatovirus A
# [18] = target: HLA-A*26:02; test: as above; details: source organism: Hepatovirus A
# [19] = target: HLA-A*30:01; test: as above; details: source organism: Hepatovirus A
# [20] = target: HLA-A*68:02; test: as above; details: source organism: Hepatovirus A
# [21] = target: HLA-B*08:01; test: as above; details: source organism: Hepatovirus A
# [22] = target: HLA-B*15:09; test: as above; details: source organism: Hepatovirus A
# [23] = target: HLA-B*15:17; test: as above; details: source organism: Hepatovirus A
# [24] = target: HLA-B*39:01; test: as above; details: source organism: Hepatovirus A
# [25] = target: HLA-A*30:02; test: IEDB peptide-MHC binding, purified MHC/competitive/radioactivity; filed as Kd, often an IC50 or EC50 that approximates it; ≥ and ≤ were set here for values at or beyond the usual limits of such assays; details: source organism: Dengue virus 2 Jamaica/1409/1983
# [26] = target: HLA-A*02:01; test: IEDB peptide-MHC binding, purified MHC/direct/fluorescence; filed as Kd, often an IC50 or EC50 that approximates it; ≥ and ≤ were set here for values at or beyond the usual limits of such assays; details: source organism: Escherichia coli O157:H7
# [27] = target: HLA-A*02:12; test: as above; details: source organism: Escherichia coli O157:H7 str. EC869
# [28] = target: HLA-A*02:19; test: as above; details: source organism: Escherichia coli O157:H7 str. EC869
# [29] = target: HLA-A*02:50; test: as above; details: source organism: Escherichia coli O157:H7 str. EC869
# [30] = target: HLA-A*03:01; test: as above; details: source organism: Escherichia coli O157:H7
# [31] = target: HLA-A*23:01; test: as above; details: source organism: Escherichia coli O157:H7 str. EC869
# [32] = target: HLA-A*24:03; test: as above; details: source organism: Escherichia coli O157:H7 str. EC869
# [33] = target: HLA-A*26:01; test: as above; details: source organism: Escherichia coli O157:H7 str. EC869
# [34] = target: HLA-A*26:02; test: as above; details: source organism: Escherichia coli O157:H7 str. EC869
# [35] = target: HLA-A*29:02; test: as above; details: source organism: Escherichia coli O157:H7 str. EC869
# [36] = target: HLA-B*08:01; test: as above; details: source organism: Escherichia coli O157:H7 str. EC869
# [37] = target: HLA-B*18:01; test: as above; details: source organism: Escherichia coli O157:H7 str. EC869
# [38] = target: HLA-B*38:01; test: as above; details: source organism: Escherichia coli O157:H7 str. EC869
# [39] = target: HLA-B*40:01; test: as above; details: source organism: Escherichia coli O157:H7
# [40] = target: HLA-B*44:02; test: as above; details: source organism: Escherichia coli O157:H7 str. EC869
# [41] = target: HLA-B*51:01; test: as above; details: source organism: Escherichia coli O157:H7 str. EC869
# [42] = target: HLA-A*69:01; test: IEDB peptide-MHC binding, purified MHC/competitive/fluorescence; filed as Kd, often an IC50 or EC50 that approximates it; ≥ and ≤ were set here for values at or beyond the usual limits of such assays; details: source organism: Escherichia coli B171
# [43] = source organism: Escherichia coli O157:H7
# [44] = source organism: Escherichia coli O157:H7 str. EC869
sequence,measurement,setting,value
YMYAVSGAL,Kd,[1]; source organism: Hepatovirus A,≥ 20000 nM
same,Kd,[2]; source organism: Hepatovirus A,≥ 20000 nM
same,Kd,[3]; source organism: Hepatovirus A,≥ 20000 nM
same,Kd,[4]; source organism: Hepatovirus A,≥ 20000 nM
same,Kd,[5]; source organism: Hepatovirus A,≥ 20000 nM
same,Kd,[6]; source organism: Hepatovirus A,11.6 nM
same,Kd,[7]; source organism: Hepatovirus A,5 nM
same,Kd,[8]; source organism: Hepatovirus A,≥ 20000 nM
same,Kd,[9],449 nM
same,Kd,[10]; source organism: Hepatovirus A,1770 nM
same,Kd,[11]; source organism: Hepatovirus A,15.6 nM
same,Kd,[12]; source organism: Hepatovirus A,≥ 20000 nM
same,Kd,[13]; source organism: Hepatovirus A,≥ 20000 nM
same,Kd,[14],≥ 20000 nM
same,Kd,[15],231 nM
same,Kd,[16],3.7 nM
same,Kd,[17],1.6 nM
same,Kd,[18],4580 nM
same,Kd,[19],4140 nM
same,Kd,[20],2120 nM
same,Kd,[21],830 nM
same,Kd,[22],322 nM
same,Kd,[23],181 nM
same,Kd,[24],1.5 nM
SQHNYRPGY,Kd,[7]; source organism: Dengue virus,282 nM
same,Kd,[10]; source organism: Dengue virus,≥ 20000 nM
same,Kd,[25],777 nM
ETIGLVRAL,Kd,[1]; [43],≥ 20000 nM
same,Kd,[26],≥ 20000 nM
same,Kd,[27],≥ 20000 nM
same,Kd,[28],≥ 20000 nM
same,Kd,[29],≥ 20000 nM
same,Kd,[30],≥ 20000 nM
same,Kd,[2]; [43],≥ 20000 nM
same,Kd,[31],≥ 20000 nM
same,Kd,[32],≥ 20000 nM
same,Kd,[33],4 nM
same,Kd,[34],≤ 1 nM
same,Kd,[3]; [44],≤ 1 nM
same,Kd,[35],≥ 20000 nM
same,Kd,[4]; [43],≥ 20000 nM
same,Kd,[5]; [43],≥ 5000 nM
same,Kd,[36],≥ 20000 nM
same,Kd,[6]; [43],1000 nM
same,Kd,[37],≥ 20000 nM
same,Kd,[8]; [43],≥ 20000 nM
same,Kd,[38],≥ 20000 nM
same,Kd,[39],≥ 20000 nM
same,Kd,[40],≥ 20000 nM
same,Kd,[10]; [43],≥ 20000 nM
same,Kd,[11]; [43],≥ 20000 nM
same,Kd,[41],≥ 20000 nM
same,Kd,[12]; [44],≥ 20000 nM
same,Kd,[13]; [43],≥ 20000 nM
same,Kd,[42],0.6 nM
